Patent publication US20240110168

Target: T1, second subunit of the Jack Bean (Canavalia ensiformis) β-hexosaminidase
T1 chain: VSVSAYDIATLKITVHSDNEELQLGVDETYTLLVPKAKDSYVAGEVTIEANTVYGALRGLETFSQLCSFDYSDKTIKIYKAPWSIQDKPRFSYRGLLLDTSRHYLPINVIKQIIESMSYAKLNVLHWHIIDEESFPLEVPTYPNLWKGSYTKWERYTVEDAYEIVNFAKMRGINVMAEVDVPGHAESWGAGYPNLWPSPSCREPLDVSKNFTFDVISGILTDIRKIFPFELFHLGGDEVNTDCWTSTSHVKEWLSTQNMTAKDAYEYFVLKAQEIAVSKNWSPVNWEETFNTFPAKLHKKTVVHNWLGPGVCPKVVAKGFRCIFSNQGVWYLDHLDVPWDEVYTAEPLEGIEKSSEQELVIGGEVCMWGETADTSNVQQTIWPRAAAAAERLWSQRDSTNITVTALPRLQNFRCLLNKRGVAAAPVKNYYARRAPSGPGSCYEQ

B1: first subunit of the Jack Bean (Canavalia ensiformis) β-hexosaminidase (protein)
chain: SIIEPTESLTYLWPLPADFTSGDETLSVDPALTLSVAGNGGGSSILRDAFDRYRGIIFKHSSVGFS
modifications: not fully specified
β-hexosaminidase (b-Hex) activity: Dissociation of the two chains led to a complete loss of activity
